Laboratory results published in article PMC6695731, “Application of a Substrate-Mediated Selection with c-Src Tyrosine Kinase to a DNA-Encoded Chemical Library” (Molecules, 2019).
Read-outs that look alike come from different tables or passages of the source. Blank lines part the entries; values can stand above or below the molecule they belong to.

Assays:
c-Src [1] = biological target: T1, c-Src (Homo sapiens, UniProt P12931); assay: ADP-Glo assay of compounds as c-Src substrates (ADP production); type: biochemical; conditions: for Vmax / Km: Table S3, ADP-Glo assay of SrcDEL10 derivatives, enzyme Src; for activity as substrate in ADP-Glo assay (words): SrcDEL10 derivatives compared with parental compound
Procedure: (§1) Hit molecules were initially characterized as substrates for c-Src using the luciferase-based ADP-Glo assay (Promega). All six molecules appeared to be efficient substrates for Src kinase.
(§2) Kinase reaction was performed as follows 1x kinase buffer (25 mM Tris-HCl (pH 7.5), 2 mM dithiothreitol (DTT), 0.1 mM Na3VO4, 10 mM MgCl2), 1 mM ATP, different concentrations (1 μM to 100 μM) of substrates (either off DNA or on DNA hit molecules), and 12 nM rSrc by incubation for 2 h at 30 °C. After that, distinct 55mers were annealed to each kinase reaction, as previously described. The annealed reactions were incubated with anti Pho-Tyr loaded protein G magnetic bead at RT for 30 min. After washing by three times 20 μL 1xPBST with 1 mg/mL BSA, 1 mg/mL tRNAs), the captured samples were eluted by 20 μL of 1 mM phenylphosphate. The resulting supernatant was then used as a template in qPCR.
(§3) After the kinase reaction was performed as previous section, the reaction mixture (5 μL) was incubated with 5 µL of ADP-Glo™ reagent at RT for 40 min and then add 10 µL of kinase detection reagent at RT for 1 h. The luminescence was measure by plate reader.

c-Src [2] = biological target: T1, c-Src; assay: NADH-based coupled enzyme assay detecting ADP generation; type: biochemical; conditions: 1 mM ATP, 100 µM compound, 12 nM Src, 30 °C, 3 h
Procedure: To confirm this, compounds were tested with an NADH-based, coupled enzyme assay that also detects ADP generation. […] This additionally supported that the ADP-Glo activity observed was due to activation of ATP hydrolysis and not phosphotransfer to these compounds.
Kinase reaction was performed as follows 1x kinase buffer (25 mM Tris-HCl (pH 7.5), 2 mM dithiothreitol (DTT), 0.1 mM Na3VO4, 10 mM MgCl2), 1 mM ATP, 100 μM peptides and 12 nM Src at 30 °C for 3 h. The kinase reaction mixture was incubated with 30 unit/mL lactic dehydrogenase (LDH), 20 unit/mL pyruvate kinase (PK), 2 mM phosphoenolpyruvate (PEP), and 1 mM NADH. The absorbance of NADH was monitored at 340 nm.
Figure S8. NADH Coupled Assay of Hit Molecules with c-Src. Samples were composed of 1 mM ATP,
100 µM putative substrate molecules, and 12 nM c-Src kinase at 30 C for 3 hours. Full method description
is provided in Methods and Materials 4.6 NADH assay.

c-Src [3] = biological target: T1, c-Src; assay: radiolabel (32P-ATP) inhibition assay of LYNtide phosphorylation by c-Src; type: biochemical; conditions: 32P-ATP 50 µM, biotinylated-LYNtide 50 µM
Procedure: The original six off-DNA hits were tested for inhibition of c-Src activity. For these tests, we used ^32P-ATP as a substrate and detected phosphorylation levels of a biotinylated-LYNtide substrate after adsorption to streptavidin coated membranes. This assay should not be affected by activation of ATP hydrolysis or phosphotransfer to the small molecules. […] There was no apparent correlation of these values to the Km or kcat values in the prior assays as substrates.
Each hit molecule was preincubated with 1.2 nM c-Src at 30 °C for 30 min. The kinase reaction was initiated with the addition of 50 μM LYNtide and 50 μM ATP with 0.15 μCi gamma ^32P ATP at 30 °C for 10 min. The kinase reaction samples (2 µL) were spotted on P81 filter paper consisting of 1.5 cm squares. After air dry, the P81 papers were washed 4 times with 0.5% phosphoric acid for 5 min each. The P81 papers were washed one time with acetone for 5 min. The papers were then allowed to air dry for about 20 min. The dried P81 papers were analyzed by liquid scintillation counter.
Figure 6 Inhibition of hit molecules in a radiolabel assay with ^32P-ATP (50 µM) and biotinylated-LYNtide (50 µM) as substrates.

c-Src [4] = conditions: cited from earlier work
[5] = test system: NC(=O)C(Cc1ccc(O)cc1)NC(=O)CN(CCCCCCO)C(=O)C1Cc2ccccc2N1C(=O)CCc1ccc(O)cc1; assay: ADP-Glo assay of compounds as c-Src substrates (ADP production); type: biochemical; conditions: other: ADP-Glo assay, compound as substrate of c-Src; pH 7.5; 30.0 °C
Procedure: as §1, §2, §3

[6] = test system: NC(=O)CN(CCc1ccc(O)cc1)C(=O)[C@H](CC(=O)O)NC(=O)c1cccc(CN(CC2CC2)C(=O)CCO)c1; assay: as above; type: biochemical; conditions: other: Table S3, ADP-Glo assay of SrcDEL10 derivatives, enzyme Src; pH 7.5; 30.0 °C
Procedure: as §1, §2, §3

[7] = test system: C[C@H](NC(=O)c1ccc(CN(CC2CC2)C(=O)CCO)cc1)C(=O)N(CCc1ccc(O)cc1)CC(N)=O; assay: as above; type: biochemical; conditions: other: Table S3, ADP-Glo assay of SrcDEL10 derivatives, enzyme Src; pH 7.5; 30.0 °C
Procedure: as §1, §2, §3

[8] = test system: NC(=O)C1Cc2ccc(O)cc2CN1C(=O)C(CC(=O)O)NC(=O)c1ccc(CN(CC2CC2)C(=O)CCO)cc1; assay: as above; type: biochemical; conditions: other: Table S3, ADP-Glo assay of SrcDEL10 derivatives, enzyme Src; pH 7.5; 30.0 °C
Procedure: as §1, §2, §3

[9] = test system: NC(=O)C(Cc1cccnc1)NC(=O)CN(CCc1ccc(O)cc1)C(=O)C1Cc2c([nH]c3ccccc23)CN1C(=O)CCO; assay: as above; type: biochemical; conditions: other: ADP-Glo assay, compound as substrate of c-Src; pH 7.5; 30.0 °C
Procedure: as §1, §2, §3

[10] = test system: NC(=O)CN(CCCCCCO)C(=O)c1ccc(CNC(=O)[C@H](Cc2ccc(O)cc2)NC(=O)CCc2ccc(O)cc2)cc1; assay: as above; type: biochemical; conditions: other: ADP-Glo assay, compound as substrate of c-Src; pH 7.5; 30.0 °C
Procedure: as §1, §2, §3

[11] = test system: NC(=O)CN(CCc1ccc(O)cc1)C(=O)[C@H](CCC(=O)O)NC(=O)c1ccc(CN(CC2CC2)C(=O)CCO)cc1; assay: as above; type: biochemical; conditions: other: Table S3, ADP-Glo assay of SrcDEL10 derivatives, enzyme Src; pH 7.5; 30.0 °C
Procedure: as §1, §2, §3

[12] = test system: NC(=O)CN(CCc1ccccc1)C(=O)[C@H](CC(=O)O)NC(=O)c1ccc(CN(CC2CC2)C(=O)CCO)cc1; assay: as above; type: biochemical; conditions: pH 7.5, 30.0 °C
Procedure: as §1, §2, §3

[13] = test system: N=C(N)NCCC[C@H](NC(=O)CN(Cc1ccco1)C(=O)CCO)C(=O)N(CCc1ccc(O)cc1)Cc1ccc(C(N)=O)cc1; assay: as above; type: biochemical; conditions: other: ADP-Glo assay, compound as substrate of c-Src; pH 7.5; 30.0 °C
Procedure: as §1, §2, §3

[14] = test system: NC(=O)[C@H](Cc1ccc(O)cc1)NC(=O)[C@H](CC(=O)O)NC(=O)c1ccc(CN(CC2CC2)C(=O)CCO)cc1; assay: as above; type: biochemical; conditions: other: Table S3, ADP-Glo assay of SrcDEL10 derivatives, enzyme Src; pH 7.5; 30.0 °C
Procedure: as §1, §2, §3

[15] = test system: O=C(O)C[C@H](NC(=O)c1ccc(CN(CC2CC2)C(=O)CCO)cc1)C(=O)NCCc1ccc(O)cc1; assay: as above; type: biochemical; conditions: other: Table S3, ADP-Glo assay of SrcDEL10 derivatives, enzyme Src; pH 7.5; 30.0 °C
Procedure: as §1, §2, §3

[16] = test system: NC(=O)[C@H](Cc1cccnc1)NC(=O)CN(CC1CC1)C(=O)CCc1ccc(O)cc1; assay: as above; type: biochemical; conditions: other: ADP-Glo assay, compound as substrate of c-Src; pH 7.5; 30.0 °C
Procedure: as §1, §2, §3

[17] = test system: NC(=O)CN(CCc1ccc(O)cc1)C(=O)[C@H](CC(=O)O)NC(=O)c1ccc(CN(CC2CC2)C(=O)CCO)cc1; assay: as above; type: biochemical; conditions: other: ADP-Glo assay, compound as substrate of c-Src; pH 7.5; 30.0 °C
Procedure: as §1, §2, §3

[18] = optimal natural peptide sequence for c-Src, reference not given
[19] = c-Src substrates lacking acidic residues, Lam and coworkers
[20] = other: Table S3, ADP-Glo assay of SrcDEL10 derivatives, enzyme Src

Vmax (c-Src [1]): 0.492 µM/min
Molecule: C[C@H](NC(=O)c1ccc(CN(CC2CC2)C(=O)CCO)cc1)C(=O)N(CCc1ccc(O)cc1)CC(N)=O [Src 10-2]

Vmax (c-Src [1]): 0.382 µM/min
Molecule: O=C(O)C[C@H](NC(=O)c1ccc(CN(CC2CC2)C(=O)CCO)cc1)C(=O)NCCc1ccc(O)cc1 [Src 10-3]

Vmax (c-Src [1]): 0.54 µM/min
Molecule: NC(=O)CN(CCc1ccc(O)cc1)C(=O)[C@H](CC(=O)O)NC(=O)c1cccc(CN(CC2CC2)C(=O)CCO)c1 [Src 10-4]

activity as substrate in ADP-Glo assay (words) (c-Src [1]; listed as 10–8): lacked activity altogether | activity as substrate in ADP-Glo assay (words) (c-Src [1]; listed as Src-10-8): No activity | Km (c-Src [1]): > 100 µM
Molecule: CCCN(Cc1ccc(C(=O)N[C@@H](CC(=O)O)C(=O)N(CCc2ccc(O)cc2)CC(N)=O)cc1)C(=O)CCO [Src 10-8]

Km (c-Src [1]): > 100 µM
Molecule: CC(=O)N(Cc1ccc(C(=O)N[C@@H](CC(=O)O)C(=O)N(CCc2ccc(O)cc2)CC(N)=O)cc1)CC1CC1 [Src 10-9]

Km (c-Src [1]): > 100 µM
Molecule: NC(=O)CN(Cc1cccc(O)c1)C(=O)[C@H](CC(=O)O)NC(=O)c1ccc(CN(CC2CC2)C(=O)CCO)cc1 [Src 10-10]

Second part, the molecule before the results:

Molecule: NC(=O)CN(CCc1ccccc1)C(=O)[C@H](CC(=O)O)NC(=O)c1ccc(CN(CC2CC2)C(=O)CCO)cc1 [Src 10-6]
activity as substrate in ADP-Glo assay (words) (c-Src [1]): comparable substrate to the parental compound

Molecule: NC(=O)C(Cc1cccnc1)NC(=O)CN(CCc1ccc(O)cc1)C(=O)C1Cc2c([nH]c3ccccc23)CN1C(=O)CCO (centres unmarked) [SrcDEL5]
ADP generation relative to compound (c-Src [2]): large molar excess | IC50 (c-Src [3]): 64 µM

Molecule: N=C(N)NCCC[C@H](NC(=O)CN(Cc1ccco1)C(=O)CCO)C(=O)N(CCc1ccc(O)cc1)Cc1ccc(C(N)=O)cc1 [SrcDEL8]
ADP generation relative to compound (c-Src [2]): large molar excess | IC50 (c-Src [3]): 96 µM

Molecule: NC(=O)CN(CCCCCCO)C(=O)c1ccc(CNC(=O)[C@H](Cc2ccc(O)cc2)NC(=O)CCc2ccc(O)cc2)cc1 [SrcDEL14]
ADP generation relative to compound (c-Src [2]): little turnover | IC50 (c-Src [3]): 18 µM

Molecule: NC(=O)C(Cc1ccc(O)cc1)NC(=O)CN(CCCCCCO)C(=O)C1Cc2ccccc2N1C(=O)CCc1ccc(O)cc1 (centres unmarked) [SrcDEL16]
ADP generation relative to compound (c-Src [2]): little turnover | IC50 (c-Src [3]): 26 µM

Molecule: NC(=O)[C@H](Cc1cccnc1)NC(=O)CN(CC1CC1)C(=O)CCc1ccc(O)cc1 [SrcDEL21]
ADP generation relative to compound (c-Src [2]): large molar excess

Molecule: EEEIYGIFG
Km (c-Src [4]; [18]): 14 µM | kcat (c-Src [4]; [18]): 2.9 s⁻¹

Molecule: GIYWHHY [efficient c-Src peptide substrate lacking acidic residues]
Km (c-Src [4]; [19]): 21 µM

Molecule: YIYGSFK [efficient c-Src peptide substrate lacking acidic residues]
Km (c-Src [4]; [19]): 55 µM

Molecule: c-Src (Homo sapiens)
Km [5]: 18 µM | kcat [5]: 0.533 s⁻¹ | kcat/Km [5]: 30000 M⁻¹ s⁻¹ | Km [6]: 9.68 µM | kcat [6]: 44. 66 1/min | kcat/Km [6]: 4. 61 1/min/uM | Km [7]: 4.31 µM | kcat [7]: 0.683 s⁻¹ | kcat/Km [7]: 9. 52 1/min/uM | Km [8]: 15.4 µM | kcat [8]: 122. 8 1/min | kcat/Km [8]: 7. 95 1/min/uM | Km [9]: 33 µM | kcat [9]: 5.83 s⁻¹ | kcat/Km [9]: 183000 M⁻¹ s⁻¹ | Km [10]: 13 µM | kcat [10]: 0.75 s⁻¹ | kcat/Km [10]: 55000 M⁻¹ s⁻¹ | Km [11]: 20.7 µM | kcat [11]: 92. 84 1/min | kcat/Km [11]: 4. 49 1/min/uM | kcat/Km ([12]; other: ADP-Glo assay): 6.9 min⁻¹ µM⁻¹ | Km [12, 20]: 21.1 µM | kcat [12, 20]: 144. 9 1/min | kcat/Km [12, 20]: 6. 86 1/min/uM | Km [13]: 19 µM | kcat [13]: 2.5 s⁻¹ | kcat/Km [13]: 130000 M⁻¹ s⁻¹ | Km [14]: 4.37 µM | kcat [14]: 89. 33 1/min | kcat/Km [14]: 20. 56 1/min/uM | Km [15]: 3.79 µM | kcat [15]: 24. 21 1/min | kcat/Km [15]: 6. 39 1/min/uM | Km [16]: 28 µM | kcat [16]: 1.43 s⁻¹ | kcat/Km [16]: 50000 M⁻¹ s⁻¹ | Km [17]: 18 µM | kcat [17]: 1.37 s⁻¹ | kcat/Km [17]: 76700 M⁻¹ s⁻¹
